From patent US7498429B2, “AHAS small subunit promoter” (priority 1998, dated 2009)

Tests used:
Type in all cases: biochemical
[1] = biological target: T1, Arabidopsis AHAS large subunit (wild type) (Arabidopsis thaliana, UniProt P17597); test: AHAS assay of purified wild type large subunit with added substances
T1 construct: GST (glutathione transferase) (N, cleaved yes); made in house; host or cells: E. coli DH5alpha
T1 sequence (P17597 56-670): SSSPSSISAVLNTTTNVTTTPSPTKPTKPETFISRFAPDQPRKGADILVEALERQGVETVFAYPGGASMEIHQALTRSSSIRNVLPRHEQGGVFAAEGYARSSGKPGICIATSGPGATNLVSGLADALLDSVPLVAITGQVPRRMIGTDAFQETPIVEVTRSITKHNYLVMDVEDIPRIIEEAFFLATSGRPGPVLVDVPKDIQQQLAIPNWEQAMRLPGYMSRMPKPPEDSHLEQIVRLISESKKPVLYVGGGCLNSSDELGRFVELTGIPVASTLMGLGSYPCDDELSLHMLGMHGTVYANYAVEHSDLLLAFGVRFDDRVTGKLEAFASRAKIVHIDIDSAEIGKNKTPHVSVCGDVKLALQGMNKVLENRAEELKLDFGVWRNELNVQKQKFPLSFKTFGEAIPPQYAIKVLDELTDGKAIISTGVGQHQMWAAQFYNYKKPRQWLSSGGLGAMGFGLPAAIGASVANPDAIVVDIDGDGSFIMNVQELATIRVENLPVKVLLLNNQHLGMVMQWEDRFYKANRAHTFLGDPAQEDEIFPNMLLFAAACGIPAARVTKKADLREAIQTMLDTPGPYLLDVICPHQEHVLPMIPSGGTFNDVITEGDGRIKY
Protocol: (§1) AHAS assays. AHAS assays were performed with slight modification as described by Singh et al. {Singh et al., 1988}. AHAS activity was assayed in 1× AHAS assay buffer (50 mM HEPES pH 7.0, 100 mM pyruvate, 10 mM MgCl2, 1 mM TPP, and 50 μM FAD). A final concentration of 1× assay buffer was obtained either by dilution of enzyme extracted in 2× assay buffer or addition of enzyme to make a final concentration 1×AHAS assay buffer. All assays containing imazethapyr and associated controls contained a final concentration of 5% DMSO due to addition of imazethapyr to assay mixtures as a 50% DMSO solution. Assays were performed in a final volume of 250 μL at 37° C. in microtiter plates.
Effects of Dithiothreitol. The effect of dithiothreitol (DTT) in Phosphate Buffered Saline (MTPBS) on AHAS large subunit enzyme activity was measured. Experiments were carried out with or without 3 mM DTT in the purified protein solution of large subunit. The assays were conducted as above. […] Moreover, in the absence of DTT, large subunit activity degraded over the 4 day period (FIG. 6).
Effects of Bovine Serum Albumin. To determine whether the enhancement of the large subunit was specific to the small subunit, another nonspecific control which tested the effects of bovine serum albumin was run. To a fixed amount of large subunit an increasing amount of a 0.25 mg/mil BSA solution was added.
(§2) The following experiments used the small subunit and large subunit proteins purified as described in Example 2 above. The plasmid F1 containing the AHAS small subunit gene from Arabidopsis was expressed in E. coli and partially purified. The protein concentration of the sample was determined and aliquots of increasing concentration were added to a constant amount of purified Arabidopsis large subunit.

[2] = biological target: T2, herbicide-resistant mutant (Met124 His) large subunit Arabidopsis AHAS protein (Arabidopsis thaliana, UniProt P17597, M124H); test: AHAS assay of herbicide-resistant mutant large subunit with added small subunit; settings: mutant with methionine at position 124 substituted by histidine (FIG. 9)
T2 construct: GST (glutathione transferase) (N, cleaved yes); made in house; host or cells: E. coli DH5alpha
Protocol: as §1, §2
In another experiment, a herbicide-resistant mutant of the large subunit enzyme (substitution mutation at position 124, methionine substituted by histidine) was used.

[3] = biological target: T3, Arabidopsis AHAS large subunit (Arabidopsis thaliana, UniProt P17597); test: Stability of AHAS large subunit activity on storage in MTPBS with or without DTT
T3 construct: GST (glutathione transferase) (N, cleaved yes); made in house; host or cells: E. coli DH5alpha
T3 sequence (P17597 56-670): T1 sequence (P17597 56-670)
Protocol: The cell pellet from 1 liter of cell culture was resuspended in 10 ml of MTPBS (150 mM NaCl, 16 mM Na2HPO4, 4 mM NaH2PO4), pH 7.3 (Smith and Johnson Gene 67: 31-40, […]) and 100 μg/ml of lysozyme was added. The suspension was adjusted to 5 mM dithiothreitol. Triton X-100 was added to a final concentration of 1% by addition of a 20% Triton X-100 in MTPBS solution. The cells were shaken gently at 30° C. for 15 minutes and were then cooled to 4° C. on ice and sonicated for 8-10 seconds using a microtip probe, duty cycle 70%, output control at maximum for the microtip pulser. The sonicate was centrifuged two times in a J20 rotor, 17,000 rpm, 4° C., 10 minutes, to remove insoluble material. Lysate was added to 150 mg (dry weight) of glutathione agarose (equilibrated and hydrated in MTPBS) and inverted for 30 minutes at 4° C. Agarose was settled by centrifugation at 500 rpm for 5 minutes and was washed with ice cold MTPBS by repeated centrifugation cycles until the A280 of the wash matched that of MTPBS. Agarose was transferred to an appropriate column for elution. Fusion proteins were eluted with 50 mM Tris-HCl, 5 mM reduced glutathione into 1 ml fractions. […]
Effects of Dithiothreitol. The effect of dithiothreitol (DTT) in Phosphate Buffered Saline (MTPBS) on AHAS large subunit enzyme activity was measured. […]

T2 sequence (P17597 56-670 M124H): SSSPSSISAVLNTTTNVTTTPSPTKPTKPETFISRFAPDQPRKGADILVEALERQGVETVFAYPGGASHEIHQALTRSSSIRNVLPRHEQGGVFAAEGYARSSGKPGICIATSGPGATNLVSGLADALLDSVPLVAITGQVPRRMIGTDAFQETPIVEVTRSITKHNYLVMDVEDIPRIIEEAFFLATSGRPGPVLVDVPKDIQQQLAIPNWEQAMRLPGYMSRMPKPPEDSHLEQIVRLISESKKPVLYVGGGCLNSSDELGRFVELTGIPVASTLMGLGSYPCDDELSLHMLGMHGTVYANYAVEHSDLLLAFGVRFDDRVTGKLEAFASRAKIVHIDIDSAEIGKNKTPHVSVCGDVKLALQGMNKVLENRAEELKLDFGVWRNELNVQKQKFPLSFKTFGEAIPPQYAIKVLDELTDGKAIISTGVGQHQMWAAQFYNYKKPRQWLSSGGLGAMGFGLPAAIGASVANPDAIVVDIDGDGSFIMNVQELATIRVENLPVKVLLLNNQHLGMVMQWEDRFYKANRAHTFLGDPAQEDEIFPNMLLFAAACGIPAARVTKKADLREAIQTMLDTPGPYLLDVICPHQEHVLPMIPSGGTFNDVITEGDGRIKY
T2 sequence (Q93YZ7 233-491 P488L, further chain): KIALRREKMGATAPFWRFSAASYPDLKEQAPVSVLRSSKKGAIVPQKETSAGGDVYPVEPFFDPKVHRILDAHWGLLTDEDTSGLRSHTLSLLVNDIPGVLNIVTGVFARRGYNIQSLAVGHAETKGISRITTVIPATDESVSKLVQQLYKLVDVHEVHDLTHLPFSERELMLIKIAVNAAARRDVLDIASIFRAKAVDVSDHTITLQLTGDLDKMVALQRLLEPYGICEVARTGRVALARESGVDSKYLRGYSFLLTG

O[C@H](CS)[C@H](O)CS (racemic) [DTT, dithiothreitol]
effect on catalytic activity of the AHAS large subunit ([1]; 3 mM DTT in MTPBS versus no DTT (FIG. 5 vs FIG. 6)): enhanced dramatically
stabilization and activation of the enzyme compared with other sulfhydryl reductants ([1]; versus reduced glutathione and β-mercaptoethanol): better than reduced glutathione and β-mercaptoethanol

Arabidopsis small subunit protein: Arabidopsis AHAS small subunit expressed from plasmid F1 in E. coli and partially purified
effect on enzymatic activity of herbicide-resistant form of the large subunit [2]: also enhanced
effect on enzymatic activity of the catalytic large subunit ([1]; increasing small subunit (from plasmid F1) added to constant wild type large subunit (FIG. 8)): enhances the level of enzymatic activity

B1: Arabidopsis large subunit: purified wild type Arabidopsis AHAS large subunit protein expressed in E. coli (pAC774) (protein)
chain: SSISAVLNTTTNVTTTPSPTKPTKPETFISRFAPDQPRKGADILVEALERQGVETVFAYPGGASMEIHQALTRSSSIRNVLPRHEQGGVFAAEGYARSSGKPGICIATSGPGATNLVSGLADALLDSVPLVAITGQVPRRMIGTDAFQETPIVEVTRSITKHNYLVMDVEDIPRIIEEAFFLATSGRPGPVLVDVPKDIQQQLAIPNWEQAMRLPGYMSRMPKPPEDSHLEQIVRLISESKKPVLYVGGGCLNSSDELGRFVELTGIPVASTLMGLGSYPCDDELSLHMLGMHGTVYANYAVEHSDLLLAFGVRFDDRVTGKLEAFASRAKIVHIDIDSAEIGKNKTPHVSVCGDVKLALQGMNKVLENRAEELKLDFGVWRNELNVQKQKFPLSFKTFGEAIPPQYAIKVLDELTDGKAIISTGVGQHQMWAAQFYNYKKPRQWLSSGGLGAMGFGLPAAIGASVANPDAIVVDIDGDGSFIMNVQELATIRVENLPVKVLLLNNQHLGMVMQWEDRFYKANRAHTFLGDPAQEDEIFPNMLLFAAACGIPAARVTKKADLREAIQTMLDTPGPYLLDVICPHQEHVLPMIPSGGTFNDVITEGDGRIKY
stability of large subunit activity ([3]; absence of DTT, 4 day period (FIG. 6)): degraded
stability of large subunit ([3]; in the presence of 3 mM DTT, 1 month, stored at 4° C.): very stable
